Earlier results, collected in PMC6426755.

Biological target: CCL21 (Homo sapiens) (UniProt O00585)
Assay: SPR (Biacore)

Chain of UniProt O00585 (O00585 24-134): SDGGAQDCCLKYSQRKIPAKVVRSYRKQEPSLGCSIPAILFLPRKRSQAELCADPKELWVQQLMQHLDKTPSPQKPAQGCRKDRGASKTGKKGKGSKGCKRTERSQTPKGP

Kd: 0.07 µM
Substance: podoplanin (from UniProt Q86YL7)
